Assay results reported in IntAct's records for PubMed 9499404.

B1: Cell division control protein 53 (Saccharomyces cerevisiae), Q12018 (parent)
chain: MSETLPRSDDLEATWNFIEPGINQILGNEKNQASTSKRVYKILSPTMYMEVYTAIYNYCVNKSRSSGHFSTDSRTGQSTILVGSEIYEKLKNYLKNYILNFKQSNSETFLQFYVKRWKRFTIGAIFLNHAFDYMNRYWVQKERSDGKRHIFDVNTLCLMTWKEVMFDPSKDVLINELLDQVTLGREGQIIQRSNISTAIKSLVALGIDPQDLKKLNLNVYIQVFEKPFLKKTQEYYTQYTNDYLEKHSVTEYIFEAHEIIKREEKAMTIYWDDHTKKPLSMALNKVLITDHIEKLENEFVVLLDARDIEKITSLYALIRRDFTLIPRMASVFENYVKKTGENEISSLLAMHKHNIMKNENANPKKLALMTAHSLSPKDYIKKLLEVHDIFSKIFNESFPDDIPLAKALDNACGAFININEFALPAGSPKSATSKTSEMLAKYSDILLKKATKPEVASDMSDEDIITIFKYLTDKDAFETHYRRLFAKRLIHGTSTSAEDEENIIQRLQAANSMEYTGKITKMFQDIRLSKILEDDFAVALKNEPDYSKAKYPDLQPFVLAENMWPFSYQEVEFKLPKELVPSHEKLKESYSQKHNGRILKWLWPLCRGELKADIGKPGRMPFNFTVTLFQMAILLLYNDADVLTLENIQEGTSLTIQHIAAAMVPFIKFKLIQQVPPGLDALVKPETQFKLSRPYKALKTNINFASGVKNDILQSLSGGGHDNHGNKLGNKRLTEDERIEKELNTERQIFLEACIVRIMKAKRNLPHTTLVNECIAQSHQRFNAKVSMVKRAIDSLIQKGYLQRGDDGESYAYLA
partner: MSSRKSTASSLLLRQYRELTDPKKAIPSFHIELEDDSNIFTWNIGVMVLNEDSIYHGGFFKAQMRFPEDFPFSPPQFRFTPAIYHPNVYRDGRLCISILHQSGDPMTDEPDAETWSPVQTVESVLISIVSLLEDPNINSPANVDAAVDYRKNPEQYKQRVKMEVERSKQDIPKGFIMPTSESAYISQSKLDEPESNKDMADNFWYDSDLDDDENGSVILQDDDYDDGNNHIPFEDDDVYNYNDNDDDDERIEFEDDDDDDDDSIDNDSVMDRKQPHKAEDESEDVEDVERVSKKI

Variants of: B1
Settings: with ubc3_yeast CDC34, P14682

| effect of a mutation on the interaction | Variant |
| --- | --- |
| disrupting interaction | R488C |
